Assay results taken from publication PMC5589592, “Direct inhibition of STAT signaling by platinum drugs contributes to their anti-cancer activity” (Oncotarget, 2017).
Square brackets hold non-standard residues; d marks the D form. Ends that are not written are not given here. pY = N[C@@H](Cc1ccc(OP(=O)(O)O)cc1)C(=O)O

Biological target: T1, recombinant human STAT3, full-length, biotinylated through an N-terminal avi-tag (human, UniProt P40763 1-770, biotin on the avi-tag)
T1 construct: also called biotinylated STAT; full-length protein; not shown: avi-tag, N-terminal, kept
Test: AlphaScreen or HTRF; biotinylated STAT incubated 90 min with (or without) a platinum compound and FITC-pTyr peptide, then streptavidin-coated donor beads and anti-FITC acceptor beads; detection at 570 nm; cisplatin 1, 3, 10 or 30 uM inhibited the signal
Conditions: both partners purified

T1 sequence (P40763 whole entry): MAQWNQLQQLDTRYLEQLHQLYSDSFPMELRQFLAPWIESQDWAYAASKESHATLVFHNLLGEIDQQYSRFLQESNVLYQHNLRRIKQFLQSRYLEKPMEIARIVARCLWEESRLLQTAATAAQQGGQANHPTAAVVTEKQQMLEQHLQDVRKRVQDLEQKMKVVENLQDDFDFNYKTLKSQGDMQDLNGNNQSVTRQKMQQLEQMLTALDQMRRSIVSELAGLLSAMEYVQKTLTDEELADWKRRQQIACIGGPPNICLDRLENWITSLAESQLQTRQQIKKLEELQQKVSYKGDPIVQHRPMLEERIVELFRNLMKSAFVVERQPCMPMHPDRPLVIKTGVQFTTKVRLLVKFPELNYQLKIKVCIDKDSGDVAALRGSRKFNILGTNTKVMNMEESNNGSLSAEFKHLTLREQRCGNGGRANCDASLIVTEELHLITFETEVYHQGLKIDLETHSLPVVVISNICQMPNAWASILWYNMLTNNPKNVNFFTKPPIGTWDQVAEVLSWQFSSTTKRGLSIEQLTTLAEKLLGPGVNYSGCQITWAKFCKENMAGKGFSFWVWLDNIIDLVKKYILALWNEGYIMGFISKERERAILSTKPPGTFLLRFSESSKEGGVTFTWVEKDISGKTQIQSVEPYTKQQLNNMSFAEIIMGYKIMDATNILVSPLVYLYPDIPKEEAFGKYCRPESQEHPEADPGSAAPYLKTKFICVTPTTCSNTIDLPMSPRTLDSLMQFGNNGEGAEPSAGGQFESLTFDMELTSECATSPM

binding result: binds
B1: 5-carboxyfluorescein (FITC)-GpYLPQTV phospho-tyrosine peptide probe (STAT3) (peptide)
peptide: G[pY]LPQTV
modifications: not fully specified (N-terminus)
notes: pTyr peptide that corresponds with a STAT docking site of the upstream receptor; also called FITC-pTyr peptide; pTyr
